Measured values: paper PMC5596348

Experiments:
[1] = target: streptolysin O (Streptococcus pyogenes (group A Streptococcus), strain 854) (UniProt P0C0I3); test: BLI; […] (Octet RED384), […]; 20 mM Tris, 300 mM NaCl, 0.01% Tween 20, 1 mM DTT, pH 7.4; 30°C; […]
[2] = target: streptolysin O (Streptococcus pyogenes (group A Streptococcus), strain 854) (UniProt P0C0I3); test: […], room temperature; […], pH 7.4; […]
[3] = target: streptolysin O (Streptococcus pyogenes (group A Streptococcus), strain 854) (UniProt P0C0I3); test: […]; PBS, 1 mM DTT, pH 7.4; room temperature

| Substance | Kd [1] [µM] | stoichiometry N [2] | stoichiometry N [3] |
| --- | --- | --- | --- |
| 190NADase, C-terminal glycohydrolase (catalytic) domain of NADase (domain or fragment) | 20.7 |  |  |
| NAD+-glycohydrolase, full-length (enzyme) | 2.58 | 1 | 1 |
